The target in assay [1] is T1, IL-1α (human, UniProt P01583 1-271, limits assumed).
T1 sequence (looked up): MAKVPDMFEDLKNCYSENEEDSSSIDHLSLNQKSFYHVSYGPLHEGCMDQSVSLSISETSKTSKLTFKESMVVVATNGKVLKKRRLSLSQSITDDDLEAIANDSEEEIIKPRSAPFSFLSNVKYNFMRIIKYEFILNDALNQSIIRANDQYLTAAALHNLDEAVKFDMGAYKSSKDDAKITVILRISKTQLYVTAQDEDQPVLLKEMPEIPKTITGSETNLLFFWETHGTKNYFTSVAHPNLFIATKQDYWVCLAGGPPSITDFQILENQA
The experiment in a line: CDI HuProt native protein microarray. Here is the method: (§1) To confirm specificity to IL-38, several lead candidate antibodies (CD1-M3, CD1-M8, NZB-M8) were analyzed in a High-Spec Cross-reactivity Assay using native HuProt arrays (CDI Laboratories). […] of antibody was incubated overnight in a cold room, washed, and probed with anti-human secondary antibodies. Fluorescence intensity (F635) as an indicator of binding was measured for each spot. CDI software quantified the specificity of the antibody to each spot based on a Z-score. Z-score is defined as [F635−(Average F635 on array)]/(Standard deviation of F635 on array). S-score is defined as the difference between the Z-score of a given protein and the Z-score of the next highest protein.

Assay [2] concerns the target T2, IL-1β (human, UniProt P01584 1-269, limits assumed). The experiment in a line: CDI HuProt native protein microarray. Here is the method:
as §1

Assay [3] has as its target T3, IL-1Ra (human, UniProt P18510 26-177, limits assumed). The experiment in a line: CDI HuProt native protein microarray. Here is the method:
as §1

Assay [4] deals with T4, IL-18 (human, UniProt Q14116 1-193, limits assumed).
T4 sequence (looked up): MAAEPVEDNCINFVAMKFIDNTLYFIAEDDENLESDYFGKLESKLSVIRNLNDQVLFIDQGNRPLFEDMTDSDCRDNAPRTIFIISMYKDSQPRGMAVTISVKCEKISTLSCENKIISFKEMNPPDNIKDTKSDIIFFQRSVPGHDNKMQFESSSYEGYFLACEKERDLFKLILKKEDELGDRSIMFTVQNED
Nature of the assay: CDI HuProt native protein microarray. As for the experimental part: as §1

Assay [5] addresses T5, IL-36Ra (human, UniProt Q9UBH0 1-155, limits assumed).
T5 sequence (looked up): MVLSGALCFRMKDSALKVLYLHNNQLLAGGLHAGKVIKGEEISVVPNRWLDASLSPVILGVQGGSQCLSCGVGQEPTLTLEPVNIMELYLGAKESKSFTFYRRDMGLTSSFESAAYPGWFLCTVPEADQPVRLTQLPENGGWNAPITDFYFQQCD
Nature of the assay: CDI HuProt native protein microarray. Here is the method: as §1

Assay [6] deals with T6, IL-36a (human, UniProt Q9UHA7 1-158, limits assumed).
T6 sequence (looked up): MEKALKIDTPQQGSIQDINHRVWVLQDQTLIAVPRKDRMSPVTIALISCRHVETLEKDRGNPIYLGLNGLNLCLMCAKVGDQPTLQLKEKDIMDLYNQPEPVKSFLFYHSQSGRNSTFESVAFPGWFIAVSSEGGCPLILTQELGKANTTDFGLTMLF
The experiment in a line: CDI HuProt native protein microarray. Here is the method: as §1

Assay [7] has as its target T7, IL-37 (human, UniProt Q9NZH6 1-218, limits assumed).
T7 sequence (looked up): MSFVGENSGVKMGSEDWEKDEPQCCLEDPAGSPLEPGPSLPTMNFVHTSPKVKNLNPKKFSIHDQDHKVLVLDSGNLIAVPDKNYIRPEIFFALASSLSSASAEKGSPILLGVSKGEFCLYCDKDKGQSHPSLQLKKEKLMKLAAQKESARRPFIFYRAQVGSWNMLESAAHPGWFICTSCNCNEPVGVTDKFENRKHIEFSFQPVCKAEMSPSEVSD
Nature of the assay: CDI HuProt native protein microarray. As for the experimental part:
as §1

Assay [8] concerns the target T8, IL-36b (human, UniProt Q9NZH7 1-164, limits assumed).
T8 sequence (looked up): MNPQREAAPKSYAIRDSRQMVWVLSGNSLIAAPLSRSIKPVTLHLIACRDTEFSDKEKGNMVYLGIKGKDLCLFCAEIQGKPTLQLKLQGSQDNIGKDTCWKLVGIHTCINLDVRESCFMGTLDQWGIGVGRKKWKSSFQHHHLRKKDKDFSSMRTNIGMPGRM
Nature of the assay: CDI HuProt native protein microarray. Here is the method: as §1

The target in assay [9] is T9, IL-36g (human, UniProt Q9NZH8 1-169, limits assumed).
T9 sequence (looked up): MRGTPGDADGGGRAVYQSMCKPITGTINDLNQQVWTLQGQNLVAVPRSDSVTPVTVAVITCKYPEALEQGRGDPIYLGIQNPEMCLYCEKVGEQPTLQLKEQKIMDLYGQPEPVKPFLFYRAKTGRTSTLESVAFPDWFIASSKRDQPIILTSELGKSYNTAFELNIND
The experiment in a line: CDI HuProt native protein microarray. As for the experimental part: as §1

The target of assay [10] is T10, IL-33 (human, UniProt O95760 1-270, limits assumed).
T10 sequence (looked up): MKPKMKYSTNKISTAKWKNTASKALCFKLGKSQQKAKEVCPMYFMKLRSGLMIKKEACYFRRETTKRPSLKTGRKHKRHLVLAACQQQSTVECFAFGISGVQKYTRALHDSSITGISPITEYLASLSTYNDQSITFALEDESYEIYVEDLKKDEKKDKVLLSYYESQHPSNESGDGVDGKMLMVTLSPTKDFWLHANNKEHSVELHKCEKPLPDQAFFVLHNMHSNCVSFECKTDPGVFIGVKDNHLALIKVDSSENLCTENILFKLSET
The experiment in a line: CDI HuProt native protein microarray. Here is the method:
as §1

In assay [11] the target is T11, human interleukin-38 (IL-38) (human, UniProt Q8WWZ1 1-152).
T11 construct: The Adipogen protein is called full length; also called IL1F10/IL38; IL1F10
T11 sequence (looked up): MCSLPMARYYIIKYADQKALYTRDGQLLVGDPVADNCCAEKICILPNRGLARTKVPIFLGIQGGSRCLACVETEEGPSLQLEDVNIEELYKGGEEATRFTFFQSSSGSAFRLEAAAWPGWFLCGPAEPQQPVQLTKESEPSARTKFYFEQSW
Nature of the assay: CDI HuProt native protein microarray, IL-1 family members. As for the experimental part: as §1

The target of assay [12] is T1, IL-1α. The assay is described as above. As for the experimental part: as §1
Assay [13] addresses T2, IL-1β. The assay is described as above. Here is the method: as §1
Assay [14] addresses T3, IL-1Ra. Described as above. Here is the method: as §1
The target of assay [15] is T4, IL-18. Described as above. As for the experimental part: as §1
Assay [16] deals with T5, IL-36Ra. Described as above. As for the experimental part: as §1
In assay [17] the target is T6, IL-36a. The assay is described as above. As for the experimental part: as §1
Assay [18] addresses T7, IL-37. The assay is described as above. Here is the method:
as §1

The target of assay [19] is T8, IL-36b. The description is as above. As for the experimental part:
as §1

The target in assay [20] is T9, IL-36g. The assay is described as above. Here is the method:
as §1

The target in assay [21] is T10, IL-33. The assay is described as above. As for the experimental part:
as §1

Assay [22] deals with T11, human interleukin-38 (IL-38). Nature of the assay: SPR, IMM20130 captured on anti-human Fc CM5 chip, IL-38 as analyte, 25 C, 1:1 model. Here is the method:
Binding of IMM20130 to IL-38 (NovusBio, catalog number NBP2-22645) was quantified by surface plasmon resonance (SPR). Briefly, IMM20130 was diluted in SPR running buffer (10 mM HEPES, pH7.4, 150 mM NaCl, 0.0005% Tween-20, 0.2% bovine serum albumin) to final concentrations of 150 nM and 25 nM and captured at four different surface densities on an anti-human Fc coated CM5 sensor chip. Surface densities ranged from 600 to 3200 RU. IL-38 (NovusBio, catalog number NBP2-22645) was diluted in SPR running buffer to a concentration of 600 nM and a 3-fold dilution series was run across the four different IMM20130 density surfaces. Data were collected at 25° C. Data from all four surfaces were fitted to a 1:1 interaction model yielding the rate constants depicted in Table 2.
For orientation: SPR reads the build-up and loss of mass on a sensor chip optically.

From patent US20240174741A1 (IMMUNOME, published 2024) come the findings set out here.

The term Kd denotes the free concentration of one partner at which half of the binding sites on the other are occupied at equilibrium, for simple one-to-one binding. Read a high Kd as weaker binding. Usually kon stands for the second-order rate constant of association.

T3 sequence (P18510 26-177 limits assumed): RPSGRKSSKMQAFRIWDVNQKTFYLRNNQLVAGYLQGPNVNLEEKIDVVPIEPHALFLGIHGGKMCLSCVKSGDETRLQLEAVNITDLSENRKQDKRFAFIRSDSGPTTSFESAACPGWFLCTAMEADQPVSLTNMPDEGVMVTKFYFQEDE

B1: NZB-M8 (antibody, V domains shown)
VH: EVQLQQSGPELVKPGASVKISCKASGYSFTGYYMHWVKQSPEKSLEWIGVINPNTGGITYNQKFKAKATLNVDKSSSTAYMQLKSLTSEDSAVYYCARSMGVWGQGTLVTVSA
VL: DIVMTQAAPSVSVTPGESVSISCRSSKSLLHSNGNTYLYWFLQRPGQSPQLLIYRMSNLASGVPDRFSGSGSGTAFTLRISRVEAEDVGVYYCMQYLEYPFTFGSGTKLEIK
notes: Mouse monoclonal from an NZB/w mouse hybridoma
Take B1: the binding result in the assay with IL-1α [1], with IL-1β [2], in the assay with IL-1Ra [3], with IL-18 [4], with IL-36Ra [5] and with IL-36a [6] was “no binding” each time. For the same molecule, the binding result with IL-37 [7], in the assay with IL-36b [8], in the assay with IL-36g [9] and in the assay with IL-33 [10] was “no binding” each time. Moreover, the Z-score in assay [11] was 34; with IL-1α [12], -0.147; with IL-1β [13], -0.143; in the assay with IL-1Ra [14], -0.166; with IL-18 [15], -0.132; in the assay with IL-36Ra [16] it was -0.034. Also, the Z-score in the assay with IL-36a [17] is 0.033; with IL-37 [18] it was -0.113; with IL-36b [19] it was -0.087; with IL-36g [20] it was -0.143; with IL-33 [21] it was -0.17.

B2: IMM20130 (antibody, human IgG1, kappa, V domains shown)
VH: QVQLVQSGAEVKKPGASVKVSCKASGYSFINYGITWVRQVPGQGLEWMGWISAYNVKTKYAPKFQGRVNMNTDTSTRTAYMELRSLRSDDTAVYYCARDRDYDFWSGSAFDIWGQGTMVTVSS
VL: EIVLTQSPGTLSLSPGERVTLSCRASQSISTNYLAWYQQKPGQAPSLLIYGASSRATGIPDRFSGSGSGTDFTLTISRLEPEDFAVYYCQQYGSSPPRTFGQGTKLEIKR
notes: also called PR087-29B5 (parent hybridoma antibody)
Turning to B2, in assay [22], the Kd came out at 13.6 nM and the kon stood at 4980 M⁻¹ s⁻¹.

B3: CD1-M8 (antibody, V domains shown)
VH: EVQLQQSGPELVKPGASVKMSCKASGYTFTDYYIHWVKQSHGKGLEWIGYIFPNNGGNGYSQKFKGKATMTVDKSSSTAYMELRSLTSEDSAVYYCARGGYDAGFVYWGQGTLVTVSA
VL: DIVMSQSPSSLAVSAGEKVTMSCKSSQSLFNSGARKNFLAWYQQKPGQSPKLLIYWASTRESGVPDRFTGSGSGTDFTLTISSVQAEDLAVYYCKQSYYLITFGAGTKLELK
notes: Mouse monoclonal from a CD-1 mouse hybridoma
For the molecule B3, the binding result in the assay with IL-1α [1], with IL-1β [2], in the assay with IL-1Ra [3], with IL-18 [4], in the assay with IL-36Ra [5] and with IL-36a [6] was “no binding” throughout. The binding result with IL-37 [7], in the assay with IL-36b [8], with IL-36g [9] and with IL-33 [10] was “no binding” throughout. For the same molecule, the Z-score is 142 in assay [11]; -0.014 with IL-1α [12]; -0.017 with IL-1β [13]; 0.003 with IL-1Ra [14]; -0.016 with IL-18 [15]; -0.019 in the assay with IL-36Ra [16]. Moreover, the Z-score in the assay with IL-36a [17] was 0.012; with IL-37 [18], -0.016; with IL-36b [19] it was -0.01; in the assay with IL-36g [20] it was -0.008; with IL-33 [21], -0.014.
